# Reference: patent US20240158497A1 (published 2024)
# Experiments:
# [1] = target: T1, human LEPR extracellular domain expressed with a C-terminal myc-myc-hexahistidine tag (human, UniProt P48357 22-839); assay: SPR Biacore 4000, bsAb captured by anti-human Fc, 25 C
# T1 construct: Monomeric reagent; the whole entry is the construct with its tag; also called hLEPR-MMH; hLEPR.mmh
# Description: (§1) Equilibrium dissociation constants (KD values) for LEPR and GP130 binding to purified anti-LEPR/GP130 bispecific antibodies were determined using a real-time surface plasmon resonance biosensor using a Biacore 4000 instrument. All binding studies were performed in 10 mM HEPES, 150 mM NaCl, 3 mM EDTA, and 0.05% v/v Surfactant Tween-20, pH 7.4 (HBS-ET) running buffer at 25° C. and 37° C. The Biacore sensor surface was first derivatized by amine coupling with a monoclonal mouse anti-human Fc antibody (GE, #BR-1008-39) to capture anti-LEPR/GP130 bispecific antibodies. […] Different concentrations of LEPR or GP130 reagents were first prepared in HBS-ET running buffer (100 nM-3.7 nM; 3-fold serial dilution) and were injected over anti-human Fc captured anti-LEPR/GP130 bispecific antibody surface for 4 minutes at a flow rate of 30 μL/minute, while the dissociation of bispecific antibody bound LEPR or GP130 reagent was monitored for 10 minutes in HBS-ET running buffer. Kinetic association (kₐ) and dissociation (kd) rate constants were determined by fitting the real-time binding sensorgrams to a 1:1 binding model with mass transport limitation using Scrubber 2.0c curve-fitting software. Binding dissociation equilibrium constants (KD) and dissociative half-lives (t ½) were calculated from the kinetic rate constants as: […]
# [2] = target: T2, Macaca Fascicularis LEPR extracellular domain expressed with a C-terminal myc-myc-hexahistidine tag (Macaca fascicularis, UniProt Q9MYL0 22-837 (rhesus entry)); assay: as above
# T2 construct: Monomeric reagent; the whole entry is the construct with its tag; also called mfLEPR-MMH
# Description: as §1
# [3] = target: T1, human LEPR extracellular domain …; assay: SPR Biacore 4000, bsAb captured by anti-human Fc, 37 C
# Description: as §1
# [4] = target: T2, Macaca Fascicularis LEPR extracellular …; assay: as above
# Description: as §1
# T2 sequence (Q9MYL0 other isoform, or with tags, fused parts or gaps): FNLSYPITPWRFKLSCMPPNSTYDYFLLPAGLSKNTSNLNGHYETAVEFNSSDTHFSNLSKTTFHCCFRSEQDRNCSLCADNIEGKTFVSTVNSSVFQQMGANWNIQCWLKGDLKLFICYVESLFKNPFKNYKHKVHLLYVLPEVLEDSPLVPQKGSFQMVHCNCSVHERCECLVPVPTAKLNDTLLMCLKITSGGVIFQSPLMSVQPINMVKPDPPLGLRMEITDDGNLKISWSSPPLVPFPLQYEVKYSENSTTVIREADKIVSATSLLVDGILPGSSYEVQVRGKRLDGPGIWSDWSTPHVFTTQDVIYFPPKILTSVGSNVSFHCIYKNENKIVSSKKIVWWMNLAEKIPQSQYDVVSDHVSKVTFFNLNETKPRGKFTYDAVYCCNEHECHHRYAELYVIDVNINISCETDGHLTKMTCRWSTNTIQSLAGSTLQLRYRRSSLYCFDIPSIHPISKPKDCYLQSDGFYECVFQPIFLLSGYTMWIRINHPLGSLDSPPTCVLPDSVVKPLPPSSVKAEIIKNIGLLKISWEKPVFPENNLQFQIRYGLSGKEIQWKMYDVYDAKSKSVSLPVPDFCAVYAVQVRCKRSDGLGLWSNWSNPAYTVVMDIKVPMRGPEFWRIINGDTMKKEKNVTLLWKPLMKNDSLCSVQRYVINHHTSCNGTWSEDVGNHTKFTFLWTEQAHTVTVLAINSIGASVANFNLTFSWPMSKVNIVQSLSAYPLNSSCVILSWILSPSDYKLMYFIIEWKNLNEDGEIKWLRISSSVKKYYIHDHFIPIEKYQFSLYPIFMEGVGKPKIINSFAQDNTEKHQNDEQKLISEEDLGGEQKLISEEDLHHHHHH
# T1 sequence (P48357 other isoform, or with tags, fused parts or gaps): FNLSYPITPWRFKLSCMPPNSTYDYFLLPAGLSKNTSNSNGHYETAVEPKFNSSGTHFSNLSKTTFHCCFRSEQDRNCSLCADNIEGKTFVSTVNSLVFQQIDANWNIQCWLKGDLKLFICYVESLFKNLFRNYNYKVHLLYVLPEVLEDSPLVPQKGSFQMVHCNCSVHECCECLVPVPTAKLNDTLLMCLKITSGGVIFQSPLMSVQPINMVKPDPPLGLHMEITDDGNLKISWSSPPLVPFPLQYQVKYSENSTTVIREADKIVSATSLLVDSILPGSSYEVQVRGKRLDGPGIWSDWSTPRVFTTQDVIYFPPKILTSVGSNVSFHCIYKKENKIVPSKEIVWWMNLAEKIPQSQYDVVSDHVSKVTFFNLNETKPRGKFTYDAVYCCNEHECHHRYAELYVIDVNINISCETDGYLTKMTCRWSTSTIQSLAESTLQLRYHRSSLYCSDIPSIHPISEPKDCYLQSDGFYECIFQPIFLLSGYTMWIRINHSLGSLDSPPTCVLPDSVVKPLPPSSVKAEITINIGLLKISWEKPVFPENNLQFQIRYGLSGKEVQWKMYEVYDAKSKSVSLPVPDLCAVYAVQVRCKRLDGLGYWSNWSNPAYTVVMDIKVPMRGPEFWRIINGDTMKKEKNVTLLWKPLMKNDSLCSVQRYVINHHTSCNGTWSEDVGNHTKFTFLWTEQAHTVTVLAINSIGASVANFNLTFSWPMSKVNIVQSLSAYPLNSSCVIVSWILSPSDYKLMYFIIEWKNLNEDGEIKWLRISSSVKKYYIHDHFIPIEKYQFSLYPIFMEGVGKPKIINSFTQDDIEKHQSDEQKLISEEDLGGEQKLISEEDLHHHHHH
Binder,100 nM hLEPR-MMH Bound (RU) [1],Kd [1],koff [1],kon [1],t½ [1],100 nM mfLEPR-MMH Bound (RU) [2],Kd [2],koff [2],kon [2],t½ [2],100 nM hLEPR-MMH Bound (RU) [3],Kd [3],koff [3],kon [3],t½ [3],100 nM mfLEPR-MMH Bound (RU) [4],Kd [4],koff [4],kon [4],t½ [4]
"bsAb19146D (bispecific antibody, V domains shown, common light chain) VH 1: QVQLVESGGGVVQPGRSLRLSCTASGFTFSSYAMYWVRQAPGKGLEWVSVIYYDGSYKYYADSVKGRFTISRDNSKNTLYLQMDSLRAEDTAVYYCASYNWNYWYFDFWGRGTLVTVSS VH 2: QVQLVQSGPEVKKPGSSVKVSCKASGGTIDRNEITWVRQAPGQGLEWMGVIIPILGEAHYERKFQGRLTITMDESTSTAYMELSNLRSEDTAVYYCARERAARGYLDYWGQGTLVTVSS VL: not shown",45 RU,8.16 nM,0.000179 s⁻¹,22000 M⁻¹ s⁻¹,64 min,107 RU,2.63 nM,0.000113 s⁻¹,42900 M⁻¹ s⁻¹,102 min,69 RU,21.3 nM,0.000825 s⁻¹,38700 M⁻¹ s⁻¹,14 min,164 RU,5.68 nM,0.000568 s⁻¹,100000 M⁻¹ s⁻¹,20 min
"bsAb19150D (bispecific antibody, V domains shown, common light chain) VH 1: QVQLVESGGGVVQPGRSLRLSCTASGFTFSSYAMYWVRQAPGKGLEWVSVIYYDGSYKYYADSVKGRFTISRDNSKNTLYLQMDSLRAEDTAVYYCASYNWNYWYFDFWGRGTLVTVSS VH 2: EVQLVESGGGLVQSGGSLRLSCAASGFTFSRYEMNWVRQAPGKGLEWVAYISNTGTTRDYSDSVKGRFTISRDNAKNSLYLQMSSLRVEDTAVYYCVREKFSGTSDWFDPWGQGTLVTVSS VL: not shown",41 RU,7.35 nM,0.000176 s⁻¹,24000 M⁻¹ s⁻¹,66 min,102 RU,2.79 nM,0.000117 s⁻¹,41800 M⁻¹ s⁻¹,99 min,63 RU,19.5 nM,0.000691 s⁻¹,35500 M⁻¹ s⁻¹,17 min,158 RU,5.25 nM,0.000519 s⁻¹,98900 M⁻¹ s⁻¹,22 min
"bsAb19147D (bispecific antibody, V domains shown, common light chain) VH 1: QVQLVESGGGVVQPGRSLRLSCTASGFTFSSYAMYWVRQAPGKGLEWVSVIYYDGSYKYYADSVKGRFTISRDNSKNTLYLQMDSLRAEDTAVYYCASYNWNYWYFDFWGRGTLVTVSS VH 2: EVQLVESGGGLVQPGGSLRLSCTASGFTFSNYAIFWVRQAPGKGLEYVSGISNNGVTKYYADSVRDRFTISRDNSRNTVSIQMDSLRTEDMAVYYCARENWGSDDGFDIWGQGTMVTVSS VL: not shown",42 RU,7.13 nM,0.000162 s⁻¹,22700 M⁻¹ s⁻¹,71 min,107 RU,2.8 nM,0.000119 s⁻¹,42500 M⁻¹ s⁻¹,97 min,65 RU,20.5 nM,0.000791 s⁻¹,38500 M⁻¹ s⁻¹,15 min,163 RU,5.64 nM,0.000565 s⁻¹,100000 M⁻¹ s⁻¹,20 min
"bsAb19152D (bispecific antibody, V domains shown, common light chain) VH 1: QVQLVESGGGVVQPGRSLRLSCTASGFTFSSYAMYWVRQAPGKGLEWVSVIYYDGSYKYYADSVKGRFTISRDNSKNTLYLQMDSLRAEDTAVYYCASYNWNYWYFDFWGRGTLVTVSS VH 2: EVQLVQSGAEVKKPGESLKISCKGSGYSFTSYWIDWVRQMPGKGLEWMGIIYPDDSDTRYSPSFQGQVTMSVDKSISTAYLQWSSLKASDTAIYYCARHERGIVEAGTDYYYYYGMDVWGQGTTVTVSS VL: not shown",47 RU,6.75 nM,0.000165 s⁻¹,24500 M⁻¹ s⁻¹,70 min,113 RU,2.97 nM,0.000124 s⁻¹,41800 M⁻¹ s⁻¹,93 min,74 RU,20.8 nM,0.000787 s⁻¹,37700 M⁻¹ s⁻¹,15 min,169 RU,5.9 nM,0.000589 s⁻¹,99900 M⁻¹ s⁻¹,20 min
"bsAb19148D (bispecific antibody, V domains shown, common light chain) VH 1: QVQLVESGGGVVQPGRSLRLSCTASGFTFSSYAMYWVRQAPGKGLEWVSVIYYDGSYKYYADSVKGRFTISRDNSKNTLYLQMDSLRAEDTAVYYCASYNWNYWYFDFWGRGTLVTVSS VH 2: QVQLVQSGTEVKKPGSSVKVSCKASGGTFSTYPINWVRQAPGQGLEWMGGIIPIFGTASYAQKFQGRVAITTDESTSTAYMELNSLRSEDTAVYYCARERPNWGSNDYWGQGTLVTVSS VL: not shown",44 RU,7.31 nM,0.000172 s⁻¹,23600 M⁻¹ s⁻¹,67 min,107 RU,2.88 nM,0.000119 s⁻¹,41300 M⁻¹ s⁻¹,97 min,69 RU,20.5 nM,0.000798 s⁻¹,39000 M⁻¹ s⁻¹,14 min,163 RU,6.17 nM,0.000571 s⁻¹,92500 M⁻¹ s⁻¹,20 min
"bsAb19151D (bispecific antibody, V domains shown, common light chain) VH 1: QVQLVESGGGVVQPGRSLRLSCTASGFTFSSYAMYWVRQAPGKGLEWVSVIYYDGSYKYYADSVKGRFTISRDNSKNTLYLQMDSLRAEDTAVYYCASYNWNYWYFDFWGRGTLVTVSS VH 2: EVQLVESGGGLVQPGGSLRLSCAASGFTFSSYAMNWVRQAPGKGLEWVSAISGSGDSTYYTDSVKGRFTISRDNSKNTLYLQMNTLRAEDTAVYYCAKEEIVMLVGATPGWFDPWGQGTLVTVSS VL: not shown",46 RU,7.49 nM,0.000158 s⁻¹,21100 M⁻¹ s⁻¹,73 min,109 RU,2.74 nM,0.000117 s⁻¹,42500 M⁻¹ s⁻¹,99 min,70 RU,18.3 nM,0.00076 s⁻¹,41400 M⁻¹ s⁻¹,15 min,167 RU,5.3 nM,0.000554 s⁻¹,105000 M⁻¹ s⁻¹,21 min
"bsAb19149D (bispecific antibody, V domains shown, common light chain) VH 1: QVQLVESGGGVVQPGRSLRLSCTASGFTFSSYAMYWVRQAPGKGLEWVSVIYYDGSYKYYADSVKGRFTISRDNSKNTLYLQMDSLRAEDTAVYYCASYNWNYWYFDFWGRGTLVTVSS VH 2: QVQLVESGGGVVQPGRSLRLACAASGFTFRSYGMHWVRQAPGKGLEWVAVIWYDGSNKYYTDSVKGRFTISRDNSKNTLYLQMNSLRAEDTAMYYCAIDKWATVTTYLFDYWGQGTLVTVSS VL: not shown",36 RU,7.16 nM,0.000194 s⁻¹,27100 M⁻¹ s⁻¹,60 min,96 RU,2.65 nM,0.000111 s⁻¹,41900 M⁻¹ s⁻¹,104 min,61 RU,18.4 nM,0.000622 s⁻¹,33800 M⁻¹ s⁻¹,19 min,154 RU,8.09 nM,0.000506 s⁻¹,62500 M⁻¹ s⁻¹,23 min
